± gives the standard deviation of the averaged measurements.
The sequences below were run on Saccharomyces cerevisiae (assay: protein stability index of tFT-peptide fusion (C-terminal peptide) (PSI (0-1 scale)); higher = more stable (slower turnover)). Conditions: genetic background: wild type; temperature: 37 C.
Procedure: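 MPS profiling in S. cerevisiae of the tFT-X12 degron library: putative degron peptides plus stable controls, 12 aa, fused to the C-terminus of a sfGFP-mCherry timer. Cells are FACS-sorted into 8 mCherry/sfGFP bins and deep-sequenced. PSI runs from 0 (unstable) to 1 (stable). Backgrounds are wild type, das1Δ and doa10Δ at 30 °C, and wild type, das1Δ, cdc34-1 and cdc53-1 at 37 °C; 2-3 technical replicates each.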
SVSRIFRTFSCY was tested, and the protein stability index was 0.396 ± 0.041. Sequence SVVYVIYCGGIL has a protein stability index of 0.503 ± 0.036. For SWFRRPFPPRLL, the protein stability index was 0.0127 ± 0.018. SWLAQCVVISLL showed a protein stability index of 0.56 ± 0.061. In the case of TALSRLFECFLS, the protein stability index is reported as 0.499 ± 0.035. Sequence TCGAKWIFSHIC has a protein stability index of 0.275 ± 0.035. In the case of TFVGWIVWLCGS, the protein stability index is reported as 0.456 ± 0.0097. For TFVLREYVWVMS, the protein stability index was 0.426 ± 0.027. For TIKGRLNVRKIE, the protein stability index was 0.573 ± 0.085. With TPYIFVLACLHV the protein stability index was 0.461 ± 0.0069. TRKKENERRKNG gave a protein stability index of 0.558 ± 0.012. With TSFCIFFVRFVI the protein stability index was 0.469 ± 0.015. TVETYNRARKAS showed a protein stability index of 0.412 ± 0.005. TVVIFLCSYITT was tested, and the protein stability index was 0.275 ± 0.019. With TYNVMFSPWRKA the protein stability index was 0.3808 ± 0.0022. For TYYPLNRSRFIG, the protein stability index was 0.241 ± 0.023. VAALFPPLRFLN was tested, and the protein stability index was 0.224 ± 0.031. VCFAWWGARCVA gave a protein stability index of 0.534 ± 0.029. Work on VCFFLFWCLSFS yielded a protein stability index of 0.476 ± 0.021. Sequence VCLCVIICSMSV has a protein stability index of 0.0544 ± 0.01. For VCQVCVCFLFWR, the protein stability index was 0.169 ± 0.017. VCVVVLVGVVFL showed a protein stability index of 0.314 ± 0.0088. Work on VELRNCYLLVKA yielded a protein stability index of 0.34 ± 0.0065. With VFFLAFYFYRCF the protein stability index was 0.365 ± 0.0085. For VFMSVAPVSVLG, the protein stability index was 0.235 ± 0.0013. Work on VFSAIPDWLILA yielded a protein stability index of 0.462 ± 0.018. With VFSVTVVFVSVL the protein stability index was 0.324 ± 0.012. With VFVGGVSVLILF the protein stability index was 0.584 ± 0.0086. In the case of VFWLLVGLGCFS, the protein stability index is reported as 0.5686 ± 0.0022. Sequence VFYWVGVLCGWG has a protein stability index of 0.405 ± 0.018. VGCMVVIWVLWG gave a protein stability index of 0.278 ± 0.025. VGFCICISIMSF showed a protein stability index of 0.209 ± 0.027. VGPLAPVCLLVL showed a protein stability index of 0.477 ± 0.0057. With VILCSCSFVLRP the protein stability index was 0.5617 ± 0.0053. Work on VKIEVICRVSLI yielded a protein stability index of 0.404 ± 0.0055. With VLCFFWWWCRVC the protein stability index was 0.4133 ± 0.001. Work on VLFVRGHTLWLM yielded a protein stability index of 0.6344 ± 0.0035. Work on VLSCIPRLAIAA yielded a protein stability index of 0.318 ± 0.0072. In the case of VLVVTAFTFSCP, the protein stability index is reported as 0.392 ± 0.02. VLVVVRSLSFLS showed a protein stability index of 0.496 ± 0.013. For VNRRCWISRTLP, the protein stability index was 0.289 ± 0.058. VPASWLRMLAFC was tested, and the protein stability index was 0.0629 ± 0.016. For VRFSAVFVKVGV, the protein stability index was 0.5317 ± 0.0017. For VRIGCSLLFFLP, the protein stability index was 0.6267 ± 0.0046. With VRSELHINSFIH the protein stability index was 0.681 ± 0.025. Sequence VRTFVFLVGYCE has a protein stability index of 0.557 ± 0.04. For VRVFSLVVCWVV, the protein stability index was 0.367 ± 0.032. With VSSSFSVLVLLF the protein stability index was 0.52 ± 0.035. VTLVIYVLVQLT was tested, and the protein stability index was 0.216 ± 0.037. With VTTTWTWTVRLC the protein stability index was 0.149 ± 0.0059. For VVAALTPLITVA, the protein stability index was 0.138 ± 0.0061. With VVLAFFFWFFVG the protein stability index was 0.362 ± 0.01. VVLRCGCLVFIN gave a protein stability index of 0.0809 ± 0.0089. Work on VVRMRPRLFSLY yielded a protein stability index of 0.354 ± 0.033. Sequence VVTFCCARVTKI has a protein stability index of 0.651 ± 0.021. Sequence VVTFLCPLVGHV has a protein stability index of 0.507 ± 0.028. VVWFCGFFFVMV was tested, and the protein stability index was 0.465 ± 0.012. In the case of VWCVFHVWSGRL, the protein stability index is reported as 0.58 ± 0.012. For VWFVFVCAVCVL, the protein stability index was 0.271 ± 0.012. VWGLGWLVVGVG showed a protein stability index of 0.267 ± 0.0082. VWPLAFFLRFFI was tested, and the protein stability index was 0.3623 ± 0.0036. Work on VWSSSYVPLGVY yielded a protein stability index of 0.384 ± 0.013. Work on VWWTLWRVHMLG yielded a protein stability index of 0.218 ± 0.026. Sequence VYCLFLPLGVAF has a protein stability index of 0.207 ± 0.026. Sequence VYCLVLFFSQWC has a protein stability index of 0.509 ± 0.013. Work on VYFPRLLVRVSW yielded a protein stability index of 0.4787 ± 0.00097. WAIMGLIIFCLF showed a protein stability index of 0.353 ± 0.012. WGEAGRPAGRGA was tested, and the protein stability index was 0.73024 ± 1.3e-05. Work on WGFLSVVCLSGV yielded a protein stability index of 0.522 ± 0.0023. WGLGWRGALVAV was tested, and the protein stability index was 0.454 ± 0.0095. WGLPVGVESSGG showed a protein stability index of 0.733 ± 0.015. WGRFFWGCGVWV gave a protein stability index of 0.644 ± 0.031. For WGRGYRWRIWDV, the protein stability index was 0.656 ± 0.034. WIGCTVKIASLY showed a protein stability index of 0.49113 ± 0.00019. Sequence WLCLFRFLGVAY has a protein stability index of 0.2749 ± 0.0024. Sequence WLMVGVDWRFVG has a protein stability index of 0.0927 ± 0.0084. For WLSWATRRIVLG, the protein stability index was 0.527 ± 0.012. For WLWYSPIAFTAL, the protein stability index was 0.163 ± 0.0073.

These sequences were tested on Saccharomyces cerevisiae in the same assay as above. Conditions: genetic background: wild type; temperature: 30 C.
SVSRIFRTFSCY was tested, and the protein stability index was 0.321 ± 0.07. For SVVYVIYCGGIL, the protein stability index was 0.427 ± 0.036. SWFRRPFPPRLL showed a protein stability index of 0.158 ± 0.094. For SWLAQCVVISLL, the protein stability index was 0.459 ± 0.011. Sequence TALSRLFECFLS has a protein stability index of 0.461 ± 0.046. Sequence TCGAKWIFSHIC has a protein stability index of 0.267 ± 0.019. In the case of TFVGWIVWLCGS, the protein stability index is reported as 0.331 ± 0.018. In the case of TFVLREYVWVMS, the protein stability index is reported as 0.304 ± 0.0032. In the case of TIKGRLNVRKIE, the protein stability index is reported as 0.552 ± 0.11. TPYIFVLACLHV was tested, and the protein stability index was 0.372 ± 0.0091. TRKKENERRKNG showed a protein stability index of 0.422 ± 0.031. Sequence TSFCIFFVRFVI has a protein stability index of 0.322 ± 0.025. TVETYNRARKAS showed a protein stability index of 0.373 ± 0.075. TVVIFLCSYITT gave a protein stability index of 0.186 ± 0.0068. Sequence TYNVMFSPWRKA has a protein stability index of 0.206 ± 0.011. TYYPLNRSRFIG showed a protein stability index of 0.277 ± 0.15. Work on VAALFPPLRFLN yielded a protein stability index of 0.286 ± 0.045. In the case of VCFAWWGARCVA, the protein stability index is reported as 0.477 ± 0.023. VCFFLFWCLSFS was tested, and the protein stability index was 0.454 ± 0.034. In the case of VCLCVIICSMSV, the protein stability index is reported as 0.0535 ± 0.018. VCQVCVCFLFWR was tested, and the protein stability index was 0.228 ± 0.043. For VCVVVLVGVVFL, the protein stability index was 0.3 ± 0.036. VELRNCYLLVKA showed a protein stability index of 0.327 ± 0.037. With VFFLAFYFYRCF the protein stability index was 0.262 ± 0.02. VFMSVAPVSVLG showed a protein stability index of 0.29 ± 0.015. VFSAIPDWLILA gave a protein stability index of 0.453 ± 0.0079. Sequence VFSVTVVFVSVL has a protein stability index of 0.298 ± 0.046. For VFVGGVSVLILF, the protein stability index was 0.516 ± 0.044. VFWLLVGLGCFS gave a protein stability index of 0.481 ± 0.012. Work on VFYWVGVLCGWG yielded a protein stability index of 0.375 ± 0.007. VGCMVVIWVLWG gave a protein stability index of 0.325 ± 0.043. Work on VGFCICISIMSF yielded a protein stability index of 0.213 ± 0.046. VGPLAPVCLLVL showed a protein stability index of 0.459 ± 0.046. For VILCSCSFVLRP, the protein stability index was 0.401 ± 0.0085. Sequence VKIEVICRVSLI has a protein stability index of 0.429 ± 0.024. VLCFFWWWCRVC showed a protein stability index of 0.43 ± 0.017. VLFVRGHTLWLM gave a protein stability index of 0.505 ± 0.033. VLSCIPRLAIAA was tested, and the protein stability index was 0.327 ± 0.017. For VLVVTAFTFSCP, the protein stability index was 0.324 ± 0.0049. In the case of VLVVVRSLSFLS, the protein stability index is reported as 0.382 ± 0.019. For VNRRCWISRTLP, the protein stability index was 0.258 ± 0.065. Sequence VPASWLRMLAFC has a protein stability index of 0.05335 ± 0.00032. With VRFSAVFVKVGV the protein stability index was 0.4727 ± 0.0026. VRIGCSLLFFLP gave a protein stability index of 0.532 ± 0.051. In the case of VRSELHINSFIH, the protein stability index is reported as 0.53 ± 0.054. Work on VRTFVFLVGYCE yielded a protein stability index of 0.458 ± 0.036. VRVFSLVVCWVV gave a protein stability index of 0.414 ± 0.037. VSSSFSVLVLLF was tested, and the protein stability index was 0.421 ± 0.021. For VTLVIYVLVQLT, the protein stability index was 0.188 ± 0.035. VTTTWTWTVRLC showed a protein stability index of 0.15 ± 0.024. Sequence VVAALTPLITVA has a protein stability index of 0.261 ± 0.04. Work on VVLAFFFWFFVG yielded a protein stability index of 0.365 ± 0.016. Work on VVLRCGCLVFIN yielded a protein stability index of 0.134 ± 0.051. VVRMRPRLFSLY gave a protein stability index of 0.3429 ± 0.0022. VVTFCCARVTKI showed a protein stability index of 0.522 ± 0.043. Sequence VVTFLCPLVGHV has a protein stability index of 0.478 ± 0.019. VVWFCGFFFVMV gave a protein stability index of 0.399 ± 0.032. In the case of VWCVFHVWSGRL, the protein stability index is reported as 0.494 ± 0.029. In the case of VWFVFVCAVCVL, the protein stability index is reported as 0.273 ± 0.0097. With VWGLGWLVVGVG the protein stability index was 0.221 ± 0.011. VWPLAFFLRFFI gave a protein stability index of 0.288 ± 0.014. For VWSSSYVPLGVY, the protein stability index was 0.398 ± 0.044. For VWWTLWRVHMLG, the protein stability index was 0.243 ± 0.024. VYCLFLPLGVAF gave a protein stability index of 0.27 ± 0.027. VYCLVLFFSQWC gave a protein stability index of 0.452 ± 0.011. For VYFPRLLVRVSW, the protein stability index was 0.407 ± 0.095. WAIMGLIIFCLF was tested, and the protein stability index was 0.329 ± 0.022. WGEAGRPAGRGA was tested, and the protein stability index was 0.688 ± 0.039. For WGFLSVVCLSGV, the protein stability index was 0.458 ± 0.038. Work on WGLGWRGALVAV yielded a protein stability index of 0.385 ± 0.062. With WGLPVGVESSGG the protein stability index was 0.732 ± 0.03. For WGRFFWGCGVWV, the protein stability index was 0.55 ± 0.074. For WGRGYRWRIWDV, the protein stability index was 0.546 ± 0.093. WIGCTVKIASLY was tested, and the protein stability index was 0.437 ± 0.036. For WLCLFRFLGVAY, the protein stability index was 0.345 ± 0.018. WLMVGVDWRFVG gave a protein stability index of 0.138 ± 0.046. WLSWATRRIVLG showed a protein stability index of 0.47 ± 0.031. In the case of WLWYSPIAFTAL, the protein stability index is reported as 0.179 ± 0.015.
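Also: PSI is a weighted mean of sequencing reads over stability bins, variants kept only with over 10 reads, mCherry proximal and sfGFP distal, peptide attached via GGGS linker.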
